Test results from patent publication US20200147241A1 (AMICUS THERAPEUTICS, published 2020).

Target: the molecule itself
Test: reduced and non-reduced SDS-PAGE and Western blot of 293HEK cell lysate and culture media (homodimer formation)
Description: The formation of disulfide bonded dimers of modified α-GAL was examined in cell lysate and culture media (FIG. 2A). Clones of each α-GAL construct were transiently expressed in 293HEK cell. Cell lysates and culture media were run on 4-12% gradient SDS-PAGE and transferred to nitrocellulose. α-GAL was detected by Western Blotting with rabbit monoclonal anti- α-GAL 1:2000 (abcam ab168341).
Reduced and non-reduced samples were subjected to electrophoresis and Western blotting.

| Protein | binding result |
| --- | --- |
| Human α-GAL M51C-G360C (enzyme, It is the full precursor entry; Transiently expressed in 293HEK cells, tested in cell lysate and culture media; also called M51C-G360C α-GAL; modified α-galactosidase A) LDNGLARTPTMGWLHWERFCCNLDCQEEPDSCISEKLFMEMAELMVSEGWKDAGYEYLCIDDCWMAPQRDSEGRLQADPQRFPHGIRQLANYVHSKGLKLGIYADVGNKTCAGFPGSFGYYDIDAQTFADWGVDLLKFDGCYCDSLENLADGYKHMSLALNRTGRSIVYSCEWPLYMWPFQKPNYTEIRQYCNHWRNFADIDDSWKSIKSILDWTSFNQERIVDVAGPGGWNDPDMLVIGNFGLSWNQQVTQMALWAIMAAPLFMSNDLRHISPQAKALLQDKDVIAINQDPLGKQGYQLRQGDNFEVWERPLSGLAWAVAMINRQEICGPRSYTIAVASLGKGVACNPACFITQLLPVKRKLGFYEWTSRLRSHINPTGTVLLQLENTMQMSLKDLL | binds |
| Human α-GAL D233C-I359C (enzyme, It is the full precursor entry; Transiently expressed in 293HEK cells, tested in cell lysate and culture media; also called D233C-I359C α-GAL; modified α-galactosidase A) LDNGLARTPTMGWLHWERFMCNLDCQEEPDSCISEKLFMEMAELMVSEGWKDAGYEYLCIDDCWMAPQRDSEGRLQADPQRFPHGIRQLANYVHSKGLKLGIYADVGNKTCAGFPGSFGYYDIDAQTFADWGVDLLKFDGCYCDSLENLADGYKHMSLALNRTGRSIVYSCEWPLYMWPFQKPNYTEIRQYCNHWRNFADICDSWKSIKSILDWTSFNQERIVDVAGPGGWNDPDMLVIGNFGLSWNQQVTQMALWAIMAAPLFMSNDLRHISPQAKALLQDKDVIAINQDPLGKQGYQLRQGDNFEVWERPLSGLAWAVAMINRQECGGPRSYTIAVASLGKGVACNPACFITQLLPVKRKLGFYEWTSRLRSHINPTGTVLLQLENTMQMSLKDLL | binds |
